Results published in the DeepSol protein solubility set.

Test: soluble on expression in E. coli; label from the status in PepcDB or PDB records

| Sequence | soluble on expression in E. coli |
| --- | --- |
| MGHHHHHHGGHMSLIAITGATGQLGHYVIESLMKTVPASQIVAIVRNPAKAQALAAQGITVRQADYGDEAALTSALQGVEKLLLISSSEVGQRAPQHRNVINAAKAAGVKFIAYTSLLHADTSPLGLADEHIETEKMLADSGIVYTLLRNGWYSENYLASAPAALEHGVFIGAAGDGKIASATRADYAAAAARVISEAGHEGKVYELAGDSAWTLTQLAAELTKQSGKQVTYQNLSEADFAAALKSVGLPDGLADMLADSDVGASKGGLFDDSKTLSKLIGHPTTTLAESVSHLFNVNNEGGS | soluble |
| MGSDKIHHHHHHMGSFALPANAQCEAKNDAFQSGEHVMYDLYFNWKFVWVKAGIASLTTNATTYHSEPAYRINLLALGSKRADFFFKMRDTLTCVMGEKLEPRYFRKGAEEGKRYTVDEAWFSYKDGLCFAKQKRTFRDGEVQESEESDSRCIYDMLTILAQARSYDPADYKVGDKIKFPMATGRKVEEQTLIYRGKENVKAENGVTYRCLIFSLVEYDKKGKEKEVITFFVTDDKNHLPVRLDMFLNFGSAKAFLNDVRGHRHPLTSIVK | not soluble |
| MHNQAPIQRRKSTRIYVGNVPIGDGAPIAVQSMTNTRTTDVEATVNQIKALERVGADIVRVSVPTMDAAEAFKLIKQRVNVPLVADIHFDYRIALKVAEYGVDCLRINPGNIGNEERIRMVVDCARDKNIPIRIGVNAGSLEKDLQEKYGEPTPQALLESAMRHVDHLDRLNFDQFKVSVKASDVFLAVESYRLLAKQIDQPLHLGITEAGGARSGAVKSAIGLGLLLSEGIGDTLRVSLAADPVEEIKVGFDILKSLRIRSRGINFIACPTCSRQEFDVIGTVNALEQRLEDIITPMDVSIIGCVVNGPGEALVSTLGVTGGNKKSGLYEDGVRKDRLDNNDMIDQLEARIRAKASQLDEARRIDVQQVGKIITLEHHHHHH | not soluble |
| MGSDKIHHHHHHMNIHYYLIINEQASSGNGRKVARKVIQQLKQQELKYTALYTDYAGHEKELTKELAETTLLPWSEDLDVSTFPILVVLGGDGTLHNVINSLLPYDSTIPLSYIPCGSGNDFARGVGLSRNIDKALHQILRTRRPKEIQTIHYVEANQEEIGLATNNVGLGLDAAIVEKTNESSSKKALNKFKLGSLSYISSIIHVFFRQKGFPILVEMNGKQYTFNRAFLCTVTNHPYFGGGVSIMPTANPRKAVVDLVVVERINIFKILWLIFLLLRQKQGKSKHFHHFQSSKIRIVSTIPQTIHADGEILGKRSIDMVYTTQKRLFWF | not soluble |
| MDLGEFPAPDPSVLVQNFNISDFNGKWYITSGLNPTFDAFDCQLHEFHTEGDNKLVGNISWRIKTLDSGFFTRSAVQKFVQDPNQPGVLYNHDNEYLHYQDDWYILSSKIENKPEDYIFVYYRGRNDAWDGYGGAVVYTRSSVLPNSIIPELEKAAKSIGRDFSTFIRTDNTCGPEPRSHHHHHH | soluble |
| MPILIRNIVLAPGEGDDVLGTRVAERFGVPERDIQSLHLVRKSIDARRKPRVIIVCTVQCRLLDEAGFLVRHGHDPDVKAVKEEPQPVFPRLAGGGRIVIVGMGPAGLFAALRLAEYGLAPTILERGRPVEERTRDVQAFWSLGQLDTESNVQFGEGGAGTFSDGKLTTRVNDSRIGYVLQKFVDFGASPEILHLAKPHVGTDQLRRVVAGIRQGLLAAGCDIRFRSRVTDIVSREGRVGTVIVNGTDEIAADALVLAPGHSARDTYEMLARRGVHLQAKPFAMGVRVEHPQELINGIQYGKGHHPALPPADYALAHNDRRTGRSAYSFCMCPGGVVVAGSSEEGGVVTNGMSAHLRNTPFANSALVVTVGPDDFGSSSPLAGVEFQRHWERRAFEAGGGGYRAPAQNLLSFLGMKGGKGVSSSYRPRVTETDLSRVLPAAVTGTLREALPTFDRRMRGFVTAEATLTGVETRTSAPVRIVRGEDCQSVSLQGLYPTGEGAGYAGGIMSAALDGIRVADIIAGKMTAETRSAILEHHHHHH | not soluble |
| VADFRYNVGLNLSAVKNKAVKFSGDGPIQTGGFNSDQIIRNEDGGLISRFYGYVADGIFQNWDEVYAHTNENGKLVQSNAQPGDIRFKDLNHDGVLDENDKTWIGNPYPDLMVGLNLGFSYKNIDFTANFYGTFGNDIFNKTKGLYSGVSGQNVWTGTLQKAWHGEGTSNDIPRLSYNDLNQNYTRVSSFFVEDGSYMRCKLLQVGYTLPKKWLNGTELRLSLSAQNPFTITSYSGMDPERPQIGKDGSVIETGIDGIAYPNPRTFLFGIDLKF | not soluble |
| MKSRRAFITDAGGDHGSMNTQATPSPQFYLTAPATCPYLPNQMERKVFTHLVGPRAPEMNDLLTQGGFRRSQNIAYRPACETCRACVSVRILTEQFQPTKSMRRVLAANSDVVATVHAAEPSTEQFALFRRYLDHRHQSGGMSDMSALDYAIMVEDTHVNTRIIEYRVREPGSGIDSSKRGELLAVALSDVMSDGLSMVYSFFNPELEKRSLGTFMIIDHITRTRALGLPHVYLGYWVDGSEKMGYKTRYHPQEHLTPRGWEIYSPKEELEHHHHHH | not soluble |
| MSLDWHTLLTRERLGKALYSADELGRSPFHKDHDRIIFSGAFRRLGRKTQVHPVSSNDHIHTRLTHSLEVSCVGRSLGMRVGETLRDNLPDWCAPSDLGMIVQSACLAHDIGNPPFGHSGEDAIRHWFQQAAGRGWLDDMSDDERADFLNFEGNAQGFRVLTQLEYHQFDGGTRLTYATLGTYLKYPWSARHADALGYKKHKFGSYQSELPLLEQIARKLGLPQLEHQRWARHPLVYLMEAADDICYALIDLEDGLEMELLQYAEVEALLLDLVGEDLPETYRQLGPRDSRRRKLAILRGKAIEHLTNAAAHAFVEQQQALLAGQLPGDLVEHMHGPAKRCVLQAKDMARNKIFQDKRKTLHEIGAYTTLEILLNTFCGAALEQHGGRTPSFKSRRVLDLIGNNAPDPHASLHSAFLRMIDFIAGMTDSYASEMAREMTGRSSPTEGHHHHHH | soluble |
| MSLKIKKSKLIGFVVADITNPFSVAAFRGVEEVCDQYGYSIMVCNTDNSPEKEREMLLKLEAHSVEGLILNATGENKDVLRAFAEQQIPTILIDRKLPDLKLDTVTTDNRWITKEILQKVYSKGYTDVALFTEPISSISPRAERAAVYQEMASVQNVNGLVRLHEIDVKDKEQLKAELRSFHKEMPEQKKAILALNGLIMLKIISCMEELGLRIPQDIGIAGFDDTEWYKLIGPGITTIAQPSHDMGRTAMERVLKRIEGDKGAPQTIELEAKVIMRKSLEGHHHHHH | soluble |
| MLLTNKGDVMLGLKQVHHIAIIATDYAVSKAFYCDILGFTLQSEVYREARDSWKGDLALNGQYVIELFSFPFPPERPSRPEACGLRHLAFSVDDIDAAVAHLESHNVKCEAIRVDPYTQKRFTFFNDPDGLPLELYEQ | not soluble |
| MNIKLSFISIAFLSLSFNVAANEFEKSQEHYKSVTDLKNKIEILELEKKITELSGEIRNARMPKIDKSAPVLSPQPVVKSSEELQKSIEHIEEELKVELAYLVNNGQQKKYTFNLNGKLITLVNGDFVNGWKFIEDQNKIQFSKGNKVIDVN | not soluble |
| MVETLPALEIGEDERLDLENLATGAFFPVKGFMTREEALSVAHEMRLPTGEVWTIPILLQFREKPRVGPGNTVALLHGGERVALLHVAEAYELDLEALARAVFGTDSETHPGVARLYGKGPYALAGRVEVLKPRPRTPLEKTPEEVRAFFRQRGWRKVVAFQTRNAPHRAHEYLIRLGLELADGVLVHPILGAKKPDDFPTEVIVEAYQALIRDFLPQERVAFFGLATPMRYAGPKEAVFHALVRKNFGATHFLVGRDHAGVGDFYDPYAAHRIFDRLPPLGIEIVKVGAVFHCPLCGGIASERTCPEGHREKRTAISMTKVRALLREGKAPPSELVRPELLPILRRGV | soluble |
| MSESSVTTEIVVRLPKQMVTELDGIGKQENKNRHELICQATQLLLRQHKTKKRYQHESMRRGYIEMGKINLGIASEAFLAEYEAAHTVERLVSGG | not soluble |
| MTRQMILAVGQQGPIARAETREQVVGRLLDMLTNAASRGVNFIVFPELALTTFFPRWHFTDEAELDSFYETEMPGPVVRPLFETAAELGIGFNLGYAELVVEGGVKRRFNTSILVDKSGKIVGKYRKIHLPGHKEYEAYRPFQHLEKRYFEPGDLGFPVYDVDAAKMGMFICNDRRWPETWRVMGLKGAEIICGGYNTPTHNPPVPQHDHLTSFHHLLSMQAGSYQNGAWSAAAGKVGMEEGCMLLGHSCIVAPTGEIVALTTTLEDEVITAALDLDRCRELREHIFNFKAHRQPQHYGLICEF | soluble |
| GPGSMETAIQQDPVYVRLGVFRRLHGSNEVEWLMLRRINREMRPPDIPPISLKLPGKWTLLYERYKEAAIRTLWEETGITVDPTSVFPTAQLYQTSPKYYWRVPVRYFVAEVPHDVRVEGPQVVPTQYMRNWDVRLLRQSPDPIDRAWAQLADPITGCAWMKAPMIDELQKPLRGEKYMATRYTPPPYSNLQEVVGLGDGDQDTQNKETEAADPNA | not soluble |
| MSDTNYAVIYDLHSHTTASDGCLTPEALVHRAVEMRVGTLAITDHDTTAAIAPAREEISRSGLALNLIPGVEISTVWENHEIHIVGLNIDITHPLMCEFLAQQTERRNQRAQLIAERLEKAQIPGALEGAQRLAQGGAVTRGHFARFLVECGKASSMADVFKKYLARGKTGYVPPQWCTIEQAIDVIHHSGGKAVLAHPGRYNLSAKWLKRLVAHFAEHHGDAMEVAQCQQSPNERTQLAALARQHHLWASQGSDFHQPCPWIELGRKLWLPAGVEGVWQLWEQPQNTTERELLEHHHHHH | not soluble |
| MSTENDVSEENNSELDDVEDAKQDDRRRSTTVIMTMNVTTVPATESEGVRRNGSVRRRLSKQNATIEEPISLLSISDSPSENSDTTVPCIEEHPEEGKEEEKPAESSDVSKLRPPGLAQNKLWSTSKSLSRESTGTEYSDRSGIDLRNFVDRTLHKSEEDRKQLLEFEKQLKELILDDSTQSKRFELPSSYHRMLLHRCAAWFGLDHNVTNKQTDIVVNKSEKTKIPDDNFTDYIRHDNYVEDRLKRQNTCGSRKELHHMESFGDHSTSQYGSQASLNHDLLMMRRAQSFDVAAVTGPSVIQPQSPHHVRGLPMRQLSLNCPQQSMVTAPMSGPQGHQWAPQRSFDCSNNSYLCTGKHPMMRKAESFGGMANGISHGCYEQSVPVVCGTPPSVMVHHHHHHAHIQQPPTSNYTGYQVFEEMSMPSSNYQEPGMCSPGGTYYEYVPQPVVQPQQYARPIRYMPQDYRRPQGVQYMYGPPPPQQYMQYQPMVHPEVEVIVDPVQTQPFPQVSHFVLPDQQQGYSSSHQAETANSFIKASIDGGYGSMNQDVENAEKVEEV | not soluble |
| MSGKERNLPTHRISRFSKFASLATRVAGNVIAEGTKQIAKGNRPKAKDLLLTPQNIARLTDQLAHLRGAAMKLGQMLSMDAGDILEPELAEILARLRSNADPMPSKQLNSVMVNALGEQWKSAFLAFNFKPIASASIGQVHQAYSDAGDNLAVKVQYPGIRKSIDSDVDNVGTLLKIVGLIPESVDYKGLLEEAKKQLYDEANYEREAQFACRYHEALQGHPHFVVPKIYPEISSQSVLAMSFIQGTPIEKIANYDQETRDFVMHNLLELLFKELFEFKMVQTDPNFANYLYLEESKQIGLLDFGATREYSERFSSGYRQAFSSVVNDDEQGLNDALEQIGFFAQSIKPEQRMAILDLVKMACEPMLIDEAYDFKASGLAQKLREAGTILSMEQDYWHTPPADAIFLHRKIGGMYLLAARIGAKVNIRRLVQPYLKINSGLEHHHHHH | not soluble |
| MGSDKIHHHHHHMDSAYVFDSEQATKLLMKNYELVKTSGVSFIDKRIRFLIARLFAGNNEVVDPEEFSEINKEIKRQLGMFTALNGNVRASLVGLLMANDNASRESVQQVIANYNTLIQAGFQRTEYTYFAAYLLLESENPKKTARKAKTIHQLFKKDHPFLTKSEDVTTAVFLANLPEENTTKLAEITEYYFQEFAAKGFRKNDSLQFLATTGTLLYGEKDSKFIRRVDNIVEELRQKGIKVKPLHYSSIGILAFVMDARKIDSGLVNLIDELQQQPGLRFGREFVTALAISLYTEKQSGQMSKEQLEGLMVNVHILIAMEQAAAVSAAAAASAAAASS | not soluble |
